Consider 20 sequences from the DeepSol protein solubility set.

This data set can be described thus: soluble on expression in E. coli; label from the status in PepcDB or PDB records.
With “MPKSLYNYHEFIHLSHDGRIPFEKIEVPKNAILLNNSADLDNYVYLIIDGYVALFLNDGKEQPKIYSIQGEGAFLNYFTLLDHSINRFRYKTLSKCFLYRYSKLDIEYFLSMFPENFGFQFFIMKNQTTHIYFKSLMASSPASEKLMLTFSNLARLHGIPTEDDTVILPPAIKTSHLLSYSNLSKSCFYKDLQYLKTTNQIEKQDNSWIIHNKELNLMLQNGETYI”, the “soluble on expression in E. coli” value is “not soluble”.
With “MPKVYNSIVVDAPVERVWSRIRNFHDFSWAPSLIKSCKKVGGGGGYSVGARRLLNGEFLDTLIAYSEIERRIMYSMDEGPSPVSSGEIYNYVGNLHLLPVTIDDTTFVEWSGSWESASTEAVEYMNTVYRSLLADLAAEFTSESRRSEWIDQLEHHHHHH” the entry was “soluble”.
In the case of “MPLDSPAKLEFPLHWAVYVDCKDELNELLKNKSTLEIDKIDPRGRTPLMLAVTLQHFDCARLLMDAGADASIPNKEMWSVSNEAVAQGNEQFIQEVIHHRDYQRANRGAHAMKRSLEKLAEVPDFFCEMNWDFSSWVPFLSQACPSDCHKIYKRGSSVRIDTTLVSFEGASWVRGNQSYIFRLSRNGYAEFIVLDHDERIAAVQELRDDDIFNEYRPLPSALDDRLRNTISTTYIDVENIGFERTSRGFLSWFSSGETNETVDGYDCKVLNASNVHLVTKRRFDHLSSEARARLAQEEASESKAVTSFKKMMSTNKTDENTTRDLYEEGLSPDSYLDPHYEFDTGCDIGKRREVVKKSNAFQATLWMADEYPLNLHDQIIPIVELMAVNSPHFARLHNFIRLQLPAGFPVKIEIPLFHIVSARIAFQNINSPGKHVTPIDNQNVDIEEEAFEIPDGYAIDDDGRYGITWEDDDDRNNRNNRNQVANGNTSRRGLGNNYSDDMLLQYAIQQSLLESTARQPSRVQEEEYVDILEQIESVPVNPETDFYRAIRDSQVEEDRRRREDEQYEEDLRKVLELSKAEQ”, the “soluble on expression in E. coli” value is “not soluble”.
With “MPLEGEYEPSPTQWVRDQVELYESSGGTKGTTLMDTGLPVIILTTLGAKSGKIRKTPLMRVEHDGKYAAVASLGGAPKHPVWYYNVLGTPAVELQDGAVRKEFTAREVTGEEKAQWWERAVAAYPPYAEYQEKTDREIPVFVLEPAG” the entry was “not soluble”; with “MPLFKERNCSVSIVLDSRTRRKNAYEFPLSLRFTIDRKFFYLTVGSSFSEKKFSDICNATKCKSENYKLQKEWKDTFVPKYKKVLSNLNKGGILTFEMVRQCIIGEDVVLSEEETTKSQSFISIWEQVINGFKTDDGGARFTTAESYECALKSFRKILGANTIKGFCISAAEIQKWKDGMHNGVKDENGAVVGKISDTTVGIYLRCCRAVWNRCVHEGFLKDIPYPFSNKKEKGLVSIPKSAKRKQNFLNVAQMTELYNLFVSKEYPEHWTEEYTQRAHYSLGLFLAQYLCNGFNMADAGRLTYDNYYYKTDGKAFRFNRKKTSRRSADGSEVIVPIIPPLQYVLDEIAAPPTRDGFVFPDILKGAETEELRRKYTVQENSNVKDRVIKICHEALHWDKSICPSGTWCRHSFATNLHNAGVDMDYISESMGHASSDHAITQIYIEHYPLDIQMQNNSKLLNLGETSERDALLAKLANMSTEELAKLFA”, “not soluble”; with “MPLLDLLRPVSDEELRVLSERNPGWQFERLADGRLIVSPTGGESGRIRAAVLGPLYRWNEARGLGVVFDASTGFKLPDGSVLAPDAAFLLGKRWQALSQEAREGFPPLAPDAVFEVRSRSQGLEELREKAAWYLANGVRLVVLLDPYLHRVEVFRPGGVEGHQGPERVPLDPGLPGFALETRGLFLP”, “soluble”.
With “MPLSPILRQILQQLAAQLQFRPDMDVKTVREQFEKSSLILVKMANEPIHRVEDITIPGRGGPIRARVYRPRDGERLPAVVYYHGGGFVLGSVETHDHVCRRLANLSGAVVVSVDYRLAPEHKFPAAVEDAYDAAKWVADNYDKLGVDNGKIAVAGDSAGGNLAAVTAIMARDRGESFVKYQVLIYPAVNLTGSPTVSRVEYSGPEYVILTADLMAWFGRQYFSKPQDALSPYASPIFADLSNLPPALVITAEYDPLRDEGELYAHLLKTRGVRAVAVRYNGVIHGFVNFYPILEEGREAVSQIAASIKSMAVA”, the “soluble on expression in E. coli” value is on record as “soluble”.
Turning to “MPLVGQNVFKSSVTEYDAQTPVVYTVYNEVHQDLLNNTVFLKALADAIDSEIQAAREGKASLLANLQSIRLALQSGSANFGGPAGTTITHNLGTTNFRVSITPTANPDGYLGEIWVVKSSNTMTVFNSGDFRGAFDYQIFKN”, the “soluble on expression in E. coli” value is on record as “not soluble”.
“MPMPNLPKELVEEILSFVPATYLKRLSATCKPWNRLIHNDKRFARKHYDNAAKEFLVFMMRKNFRIIRRGVNLHGADPSAEVKGELTLPDPYFKNSADEFHIDRVFHCDGLLLCTSKLERRMVVWNPLTGETKWIQTHEEGDNFFLGYSQEDKNISCKKSYKIMGFYRSGSKVWEYDFNSDSWRVLNGILPNWYFDKSYKCVSLKGNTYMLAGAVTDMGFDLSLQSYDFSTEKFAPVSLPVPSQARSLNGANRLSVVRGEKLALLYRRDKRSKAEIWVTNKIDDTTEGAVSWTKVLELDLSRELHALFTSNFLVDEEKKVFICCVSWKEDEDENKSNKVYIVGEDNIVKEIDSGEDATSGCEPTILSLYVPSLVYM”: the “soluble on expression in E. coli” value is reported as “soluble”.
Regarding “MPMRLQKSTMCGLYAVLELAANPDRQVSAGDIADKYDISLNHLAKVLRALVRARLIESVRGPGGGYRFAGNPKRVTLLDIIALFEDTGLDLQEAASDDHEESRALHKVLRDIDEIAMTTLRSVSITSLLKVIDTERRKTERGPNGASARHSSAGRA”, the “soluble on expression in E. coli” value is on record as “not soluble”.
As to “MPNPFSKGWKYLTASLDNKIEENADPVIQIKQAAEAAKKQHADIEQQAASVIGNRNQLQMKLNRLLKDQQSIQEKARQALSLSDSATDPAEQHKYLNAAEVYASQLVGVESEIEQTTTLHQQAEQAAEQATQQVKQSEARLHEQLSQINELTTQAQQAKMQEAAVAASDQINSIDPDRDVPTMDSIREKIERRYADALGSQELMQSSMNERIHEIEATTSERDMRANAKLDAIRAQMRGELPAGSEETEPPADK”, the “soluble on expression in E. coli” value is listed as “not soluble”.
Consider “MPNSEPASLLELFNSIATQGELVRSLKAGNASKDEIDSAVKMLVSLKMSYKAAAGEDYKADCPPGNPAPTSNHGPDATEAEEDFVDPWTVQTSSAKGIDYDKLIVRFGSSKIDKELINRIERATGQRPHHFLRRGIFFSHRDMNQVLDAYENKKPFYLYTGRGPSSEAMHVGHLIPFIFTKWLQDVFNVPLVIQMTDDEKYLWKDLTLDQAYGDAVENAKDIIACGFDINKTFIFSDLDYMGMSSGFYKNVVKIQKHVTFNQVKGIFGFTDSDCIGKISFPAIQAAPSFSNSFPQIFRDRTDIQCLIPCAIDQDPYFRMTRDVAPRIGYPKPALLHSTFFPALQGAQTKMSASDPNSSIFLTDTAKQIKTKVNKHAFSGGRDTIEEHRQFGGNCDVDVSFMYLTFFLEDDDKLEQIRKDYTSGAMLTGELKKALIEVLQPLIAEHQARRKEVTDEIVKEFMTPRKLAAALEHHHHHH”, for which the “soluble on expression in E. coli” value was “soluble”.
On to “MPNSSIQIWLQRQIALRTFPPNREDWYVKNGFGNSEMSLEERFASFVEAIRQEDSPYHEQLSGIDFQRFEIEVTLANQKTCMTEVIGFQNNSNQSSSTPNEKFKAVGKGKHVIYFTGIGTQYQDCLIDIAKAVQITGAHYYAFEYPGMRKLGGEVLEVNDMVNTGIALANTLLEKGISIDDILFQGDSFGAAVAKKVSDQFKLQSNVTVRCILNNTFSTFQAAVEGNLGAFSTLRYTVRPLLRYTGWDIRPGEGYGQDTPYQIHVNHTGDLTLGAGHATLAESIESNSQLEHFVDPCPEEYRIKRDIYKQWHWASLSEQGITFLETKYGRNSDGQLDTHLADLYLLKYDTGLGVYESFICKYLEDSNDYIASHPQKLSLDELPRPLESETVSLRQLIVSVLPSRPSIAGFFSRSTPVIEEVETEKQEQKSIELK”, for which the “soluble on expression in E. coli” value was “soluble”.
On to “MPPANGKKGKKGGAAKAAAPEEDFDAILAEMQLADAKTAAKEATKKDAKGGKGKANGSAAATAAPEEAKQAWQAEIAAMKPIDEQFPDGKFPHGIDESPYYLKGKDGRVATDRESNEEKKALDISYEEVWQDYRRSAEAHRQVRKYVKSWIKPGMTMIEICERLETTSRRLIKEQGLEAGLAFPTGCSLNHCAAHYTPNAGDTTVLQYGDVCKIDYGIHVRGRLIDSAFTVHFDPKFDPLVEAVREATNAGIKESGIDVRLCDVGEIVEEVMTSHEVELDGKSYVVKPIRNLNGHSIAQYRIHAGKTVPIVKGGEQTKMEENEIYAIETFGSTGKGYVHDDMETSHYMKNFELADEKIPLRLQKSKGLLNLIDKNFATLAFCRRWIDRLGETKYLMALKDLCDKGIVDPYPPLCDVKGCYTAQWEHTILMRPTVKEVVSRGDDY”, for which the “soluble on expression in E. coli” value is “not soluble”.
“MPPAVPAAAATARQSASGRERNFKDKDKPESVRNSNIVAAKAVADAVRTSLGPRGMDKMIQSGNGDVTITNDGATILNQMSVIHPTAKMLVELSKAQDIEAGDGTTTVVVMAGALLDAAQNLLSKGIHPTTISESFQSAAAEAEKILDEMSSPVDLSNDALLNKMATTSLNSKVVSQHSWLLAPMAVNAVKKIINSENDSNVNLKMIKIIKKMGDTVEESELIEGALIDQKTMGRGAPTRIEKAKIGLIQFQISPPKTDMENQVIITDYAQMDRALKEERQYLLEICKQIKAAGCNVLLIQKSILRDAVNELALHFLAKMKIMCIKDIEREDIEFYSRILGCRPVASVDHFNADALGYADLVEEIPTGGDGKVIKVTGVQNPGHAVSILLRGSNKLVLEEADRSIHDALCVIRCLVKKKALLPGGGAPEMEIAVKLRNLAQTQHGATQYCWRAFADALELIPYTLAENAGLSPIHTVTELRNNHANGNSSYGVNVRKGYVTDMVEEDVVQPLLVTASAIKQASECVRSILKIDDIVMAVR”: the “soluble on expression in E. coli” value is “not soluble”.
Under “MPPSLRKAVAAAIGGGAIAIASVLITGPSGNDGLEGVSYIPYKDIVGVWTVCHGHTGKDIMLGKTYTKAECKALLNKDLATVARQINPYIKVDIPETTRGALYSFVYNVGAGNFRTSTLLRKINQGDIKGACDQLRRWTYAGGKQWKGLMTRREIEREVCLWGQQ” stands “not soluble”; under “MPQFETHRLVKHSPDRMYDLVADVEKYPQFLPLCEALSVRSRKERDGKVLLVADMTVGYKAIRETFTTQVLLNPAERAIDVKYIDGPFRYLDNRWRFEAAENGGTTIHFFIDYEFKNRLLGAVMGSMFDRAFRMFAEAFETRADKIYTDPALEHHHHHH”, “soluble”.
Consider “MPQTDKQVCIPPELPELLKQFTKDAIRTQPPDLIQWAAEYFGAMSRGEIPPVRERSEQIPLSNWAELTPELLKVLHSRVAGRLIIHADELAQMWKVLNLPTDLFNSVMNVGRFTEEIEWLKFLALACSSLGVTIAKTLKIVCEVLSSDHDGGPPRIPFSTFQFLYTYIAEVDGEISSSHVSRMLNYIEQEVIGPDGLIKVNDFTQNPRVRLE”, for which the “soluble on expression in E. coli” value is “not soluble”.
For “MPQYKLYYFNLRGWAEPARQLFKLAHVEFEDVRIENGTPEWGALKPKTPFGQLPFLSVDGFEIPQSAAILRYLAKKFGYAGKTSEEEAWVDAIVDQFKDFVTPLRQLIMAQRSGNAEEIERIQKEVFAPARDTFFKILNGILEKSKSGFLVGDGVTWADLVIADILTTMEMLGVFDKHGEEQKLAALREKVNEIPEIKEHNSSRPDSVV”, the “soluble on expression in E. coli” value was “not soluble”.
With “MPRILFTVPPFPVFIAAGEGVFKKGETHVKRVFSVFDLIYVKQGTLYITENETSFSVEGGEYILLSPGLEHYGTKGSDEATSYYWLHFDEHRYEFTAKGGSNWSELQQEKGSFEELARYGLALPRKGKVQRPQFMAQQFEKLIDYSAENSDLPLRKQILFEELMLHLQKEAFQIPSAKERVAWEAARYLQEHYKEKTTIKDLSLALHYHQDYVSRCMQQVLGVTPAQYTNRVRMTEAKRLLSSTNDKMGVIAETVGMEDPTYFSKLFKQIEGISPIEYRKIVSRKVQ” the entry was “not soluble”.
